Data published in PMC2692298.

What follows are substances tested against CXCR4 on THP-1 cells (human (endogenous in THP-1)) (UniProt P61073).
Chain of CXCR4 on THP-1 cells (human (endogenous in THP-1)) (P61073 whole entry): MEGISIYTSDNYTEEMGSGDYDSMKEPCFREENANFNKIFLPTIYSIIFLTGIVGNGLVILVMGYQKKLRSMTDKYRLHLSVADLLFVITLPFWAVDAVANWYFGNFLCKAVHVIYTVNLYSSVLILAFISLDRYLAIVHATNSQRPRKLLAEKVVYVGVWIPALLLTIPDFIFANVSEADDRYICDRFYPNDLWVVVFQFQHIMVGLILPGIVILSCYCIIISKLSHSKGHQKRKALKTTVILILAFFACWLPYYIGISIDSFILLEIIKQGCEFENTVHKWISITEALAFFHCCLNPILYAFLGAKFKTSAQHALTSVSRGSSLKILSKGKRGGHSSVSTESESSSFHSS

Chain of SDF-1 Arg47Glu (P48061 22-93 R68E): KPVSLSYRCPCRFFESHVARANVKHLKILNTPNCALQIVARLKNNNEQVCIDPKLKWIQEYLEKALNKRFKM
Chain of SDF-1 Lys64Ala (P48061 22-93 K64A): as the sequence (P48061 22-93 R68E) above, with K43A, E47R counted along it
Chain of SDF-1 Val49Ala (P48061 22-93 V70A): as the sequence (P48061 22-93 R68E) above, with E47R, V49A counted along it
Chain of SDF-1 Glu63Ala (P48061 22-93 E84A): as the sequence (P48061 22-93 R68E) above, with E47R, E63A counted along it
Chain of SDF-1 Lys27Glu (P48061 22-93 K48E): as the sequence (P48061 22-93 R68E) above, with K27E, E47R counted along it
Chain of SDF-1 Lys27Ala (P48061 22-93 K48A): as the sequence (P48061 22-93 R68E) above, with K27A, E47R counted along it
Chain of SDF-1 Arg47Ala (P48061 22-93 R68A): as the sequence (P48061 22-93 R68E) above, with E47A counted along it
Chain of SDF-1 Val39Ala (P48061 22-93 V39A): as the sequence (P48061 22-93 R68E) above, with V18A, E47R counted along it
Chain of SDF-1 Glu60Ala (P48061 22-93 E81A): as the sequence (P48061 22-93 R68E) above, with E47R, E60A counted along it

Row | Substance | EC50 of Ca2+ mobilization in THP-1 cells
1 | SDF1(H25R) (from UniProt P48061 22-93) (ligand) | 5.1 nM
2 | SDF-1 Arg20Ala (from UniProt P48061 22-93) (ligand) | 4.3 nM
3 | SDF-1 Arg41Ala (from UniProt P48061 22-93) (ligand) | 4.3 nM
4 | SDF-1 Arg47Ala (from UniProt P48061 22-93) (ligand) | 14.1 nM
5 | SDF-1 Arg47Glu (from UniProt P48061 22-93) (ligand) | 654 nM
6 | SDF-1 Glu60Ala (from UniProt P48061 22-93) (ligand) | 4.1 nM
7 | SDF-1 Glu63Ala (from UniProt P48061 22-93) (ligand) | 3.7 nM
8 | SDF-1 Lys27Ala (from UniProt P48061 22-93) (ligand) | 10.1 nM
9 | SDF-1 Lys27Glu (from UniProt P48061 22-93) (ligand) | 16.8 nM
10 | SDF-1 Lys64Ala (from UniProt P48061 22-93) (ligand) | 5 nM
11 | SDF-1 Val39Ala (from UniProt P48061 22-93) (ligand) | 27.1 nM
12 | SDF-1 Val49Ala (from UniProt P48061 22-93) (ligand) | 8.6 nM
13 | stromal cell derived factor-1 (SDF-1, also known as CXCL12), wild type (from UniProt P48061 22-93) (ligand) | 3.6 nM

Molecular target: CXCR4 on THP-1 cells (human (endogenous in THP-1)) (UniProt P61073)
Remark: another data set of the same source

Row | Substance | EC50 of Ca2+ mobilization in THP-1 cells
14 | SDF1(L36C/A65C), covalently-locked symmetric dimer (from UniProt P48061 22-93) (ligand) | 12.9 nM
